According to patent US20040208887A1 (MOLECULES OF MAN, published 2004):

Legend:
[1] = biological target: T1, recombinant E1/E2 heterodimer protein (genotype 1a) (hepatitis C virus genotype 1a, UniProt P26664 192-383; P26664 384-746, limits assumed); assay: ELISA, E1/E2 heterodimer coated; crude periplasmic Fab
T1 construct: also called E1/E2 in complex; recombinant E1/E2 antigen

[2] = biological target: T2, recombinant soluble HCV E1 protein (hepatitis C virus); assay: ELISA, recombinant E1 captured on GNA lectin; crude periplasmic Fab
T2 construct: It is not the cell-surface E1-myc construct (aa 174-359 of H77c) that was used for phage selection; also called recombinant E1; soluble E1 protein

T1 sequence (P26664 192-383 limits assumed, chain 1 of 2): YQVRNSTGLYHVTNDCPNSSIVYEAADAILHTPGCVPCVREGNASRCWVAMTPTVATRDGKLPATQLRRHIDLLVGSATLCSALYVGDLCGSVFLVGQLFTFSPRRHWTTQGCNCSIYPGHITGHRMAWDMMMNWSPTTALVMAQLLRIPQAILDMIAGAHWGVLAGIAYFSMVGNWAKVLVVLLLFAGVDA
T1 sequence (P26664 384-746 limits assumed, chain 2 of 2): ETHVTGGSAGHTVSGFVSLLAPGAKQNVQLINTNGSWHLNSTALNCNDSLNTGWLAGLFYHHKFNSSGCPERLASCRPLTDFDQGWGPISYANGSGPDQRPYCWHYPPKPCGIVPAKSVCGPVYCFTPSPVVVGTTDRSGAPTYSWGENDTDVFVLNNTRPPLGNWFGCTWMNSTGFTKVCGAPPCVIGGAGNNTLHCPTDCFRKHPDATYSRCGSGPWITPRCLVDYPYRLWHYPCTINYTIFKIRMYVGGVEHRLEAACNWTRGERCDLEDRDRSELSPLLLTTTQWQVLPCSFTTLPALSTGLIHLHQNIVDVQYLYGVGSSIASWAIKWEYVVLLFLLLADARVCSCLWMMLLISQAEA

| Binder | OD405 nm [1] | OD405 nm [2] |
| --- | --- | --- |
| Fab clone 1:8 (Fab, V domains shown, Human Fab (gamma1 Fd + kappa), crude periplasmic preparation, approx. 0.01 ug Fab/ml) VH: EVQLLESGGGLVEPGRSLRLSCAASGFNFGDYAIHWVRQGPGKGLEWVAGISWNSGSIGYADSVKGRFIISRDNAKKTLFLQMNTLRTEDTALYYCVKETGAQGVAGSGAYYFHNWGQGTLVTVSS VL: AELTQSPSSLSASIGDRVTITCRASQGISNYVAWYQQRPGKVPKLLIFGASALHSGVPSRFSGSGSGTDFTLTITSLQPEDVATYYCQKYRSAPLTFGPGTRVDLK | 0.53 OD405 nm | 0.75 OD405 nm |
| Fab clone 4:6 (Fab, V domains shown, Tested as a human Fab (gamma1 Fd + kappa), crude periplasmic preparation, approx. 0.24 ug Fab/ml) VH: VQLLEQSGAEVKKPGASVKVSCKASGYTFTKYYLHWVRQAPGQGLEWMGFINPSGGSTSSAQKFQGRISMTRDTSTTTVYMEVNSVTSEDTAVYYCARVGRLGVGATGAFDLWGQGTMVTVSS VL: AELTQSPSSLSASVGDRVTITCQASQDINYSLNWYQQKPGKPPKLLIYYASHSDTGVPSRFSGGGSGTRFTLTIYSLQPEDIATYYCQHFDHVPRYTFGPGTKVDLK | 0.2 OD405 nm | 0.97 OD405 nm |
| Fab clone 2a-32 (Fab, V domains shown, Human Fab (gamma1 Fd + kappa), crude periplasmic preparation, approx. >1 ug Fab/ml) VH: VQLLEQSGGDLVKPGGSLRLSCAASGFTFTDYYMNWIRQAPGKGLEWIAYISIGSDDTKYAASVKGRFSISRDNAKNSLYLQMNSLRVEDTAVYYCGRGGGYCSGGNCYSSDYWGQGALVTVSS VL: AELTQSPSSLSAFTGDRVSITCRASQGIGNSLAWYQQKPGHVPKVLIYDASTLSSGAPSRFSGSGSGTDFTLTISGLQPEDVATYYCQKYKSAPLTFGGGTKVEIR | 0.09 OD405 nm | 0.61 OD405 nm |
| Fab clone 2a-14 (Fab, V domains shown, Human Fab (gamma1 Fd + kappa), crude periplasmic preparation, approx. 0.72 ug Fab/ml) VH: VQLLEQSGGGVVQPGRSLRLSCAASGFTFSTYAMHWVRQAPGKGLEWVAVISHDGSNKFYADSVKGRFTISRDSSKNTLYLQMNSLRPGDTAVYYCSRWDRRAEYFQDWGQGTLVTVSS VL: AELTQSPAFMSATPGDKVNISCKASQDIDDDMNWYQQKPGEAAIFIIQEATTLVPGIPPRFSGSGYGTDFTLTINNIESEDAAYYFCLQHDNFPLTFGQGTKVEIK | 0.09 OD405 nm | 0.36 OD405 nm |
| Fab clone 2a-23 (Fab, V domains shown, Human Fab (gamma1 Fd + kappa), crude periplasmic preparation, approx. 0.50 ug Fab/ml) VH: EVQLLESGAGVVQPGKSLTLSCVGSGFTFSIYAMHWVRQAPGKGLEWVAVLSSDGSNDYYADSVKGRFSIFRDTSKNSLNLLMNNVRGEDTAVYYCARDGDGSFFYWGQGTLVTVSS VL: AELTQSPAFMSATPGDKVNISCKASQDIDDDMNWYQQKPGEAAIFIIQEATTLVPGIPPRFSGSGYGTDFTLTINNIESEDAAYYFCLQHDNFPLTFGQGTKVEIK |  | 1.47 OD405 nm |
| Fab clone 2a-40 (Fab, V domains shown, Human Fab (gamma1 Fd + kappa), crude periplasmic preparation, approx. 1.0 ug Fab/ml) VH: VQLLEQSGGGLVKPGGSLRLSCTASGFTFSGFTFSDHYMSWIRQAPGKGLELVSYIISNGYTNYPDSVKGRFTVSRDNARKSLYLQMNSLRVEDTAIYYCARGLSPSIAGDGFDIWGQGTMVTVSS VL: AELTQSPAFMSATPGDKVNISCKASQDIDDDMNWYQQKPGEAAIFIIQEATTLVPGIPPRFSGSGYGTDFTLTINNIESEDAAYYFCLQHDNFPLTFGQGTKVEIK | 0.17 OD405 nm |  |
| Fab clone 2a-30 (Fab, V domains shown, Human Fab (gamma1 Fd + kappa), crude periplasmic preparation, approx. 0.96 ug Fab/ml) VH: VQLLEQSGGGLVQPGGSLRLSCTASGFTLTDYSMDWVRQAPGKGPEWVGRSRNKANIYTTEYAASVKGRFVISRDDSENSVYLQMNNVKMDDTAVYYCARGEGIFYGSGSLDLWGQGAVVTVSS VL: AELTQSPSSLSASVGDRVTITCRSSQSISNSLHWFQQEPGKAPKLLIYAASTLQSGVPSRFSGSGSGTDFTLIITGLQPEDFATYYCQQSPRTPLTFGGGTKVEIR | 0.52 OD405 nm | 1.11 OD405 nm |
| Fab clone 2a-37 (Fab, V domains shown, Human Fab (gamma1 Fd + kappa), crude periplasmic preparation, approx. 0.08 ug Fab/ml) VH: EVQLLESGGGLVQPGRSLRLSCAASGFTFSNSDMHWVRQAPGKGLEWVTVSSRDGYDNYYADSVRGRFTISRDNSKNTLYLQMNTLRAEDTAVYYCAKRRGYAFDIWGQGTMVTVSS VL: AELTQSPSSLSASVGDRVTITCRASQSINTYLNWYQQKPGKAPELLIYGASSLQSGVPSRFSGSGSGTDFTLTITSLQAEDFASYFCQQSDSTPRTFGQGTKVEIK | 0.48 OD405 nm | 0.99 OD405 nm |
| Fab clone 2b-17 (Fab, V domains shown, Human Fab (gamma1 Fd + kappa), crude periplasmic preparation, approx. 0.16 ug Fab/ml) VH: EVQLLESGGGLVQPGRSLRLSCAASGFTFSNSDMHWVRQAPGKGLEWVTVSSRDGYDNYYADSVRGRFTISRDNSKNTLYLQMNTLRAEDTAVYYCAKRRGYAFDIWGQGTMVTVSS VL: AELTQSPSSLSASVGDRVTITCRASQSINTYLNWYQQKPGKAPELLIYGASSLQSGVPSRFSGSGSGTDFTLTITSLQAEDFASYFCQQSDSTPRTFGQGTKVEIK |  | 0.24 OD405 nm |
| Fab clone 2a-5 (Fab, V domains shown, Human Fab (gamma1 Fd + kappa), crude periplasmic preparation, approx. 0.44 ug Fab/ml) VH: EVQLLESGPGLVKPSETLSLTCTVSTGSISGYFWSWIRQPPGKGLEWIAYIHNSGNTNYNPSLRSRVTVSIDTSKNQFSLKLTSVTAADTAVYYCARDGGGWDTYLDSWGQGFLVTVSS VL: AELTQSPSSLSASVGDRVTITCRASQTVSSYLNWYQQKPGKAPKVLIYGISTLQSGVPSRFSGSGSETDFTLTISNLQPEDFAIYYCQQSYSSRTFGQGTKVEIK | 0.08 OD405 nm | 0.89 OD405 nm |
| Fab clone 2a-4 (Fab, V domains shown, Human Fab (gamma1 Fd + kappa), crude periplasmic preparation, approx. 1.0 ug Fab/ml) VH: not shown VL: AELTQSPSSLSASIGDRVAISCQASQDIGNYLNWYQQKPGKAPRLLIYDASNLEAGVPSRFSGSGSGTDFTLTISTLQPEDFATFYCQQTDSTPYTFGQGTKLEIR |  | 1.18 OD405 nm |
| Fab clone 2a-13 (Fab, V domains shown, Human Fab (gamma1 Fd + kappa), crude periplasmic preparation, approx. 0.36 ug Fab/ml) VH: EVQLLESGPGLVKPSETLSLTCTVSGGSISDYYWSWIRQPPGKGLEWIGHTYDNGGTKYNPSLKSRASISVDTSKNQVSLRLTSVTAADTAVYYCATAFLDNSGWYTFDSWGQGSLVTV VL: AELTQSPSSVSASVRDRVTITCRASQGISTWLAWYQQKPGKAPKLLIYAASTLQSGVPSRFSGSGSGTDFTLTIGSLQPEDVATYYCQQANSFPPGALTFGGGTKVEVK |  | 1.05 OD405 nm |
| Fab clone 2b-3 (Fab, V domains shown, Human Fab (gamma1 Fd + kappa), crude periplasmic preparation, approx. 1.0 ug Fab/ml) VH: EVQLLESGAEVKKPGASVTVSCKASGYSFSDYYIHWVRQAPGQGLEWMGIINPSAGTTTYKQKFQHRVTLTRDTSTNTAYMKLYNLTPDDTAIFFCARGSGGSRSEYDYWGQGTLVTVSS VL: AELTQSPSSLSASVGDGVTITCRASQSISTYLNWYQQKPGKAPKLLMYAASTLQSGVPSRFSGSGSGTDFTLTISSLQPEDFAAYYCQQARSFPYTFGQGTRLEIR | 0.19 OD405 nm | 1.18 OD405 nm |
| Fab clone 13 (Fab, V domains shown, Human Fab (gamma1 Fd + kappa light chain), tested as a crude periplasmic preparation, approx. >3 ug Fab/ml) VH: EVQLLESGGGLVQPGRSLRLSCAASGFTFDDYGMHWVRQAPGKGLEWVSGLSWNSDNIGYADSVKGRFTISRDNAKNSLYLQMNSLKIEDTAFYYCAKAPRTLRFLEWHNVYFDLWGRGTLVTVSS VL: not shown |  | 0.2 OD405 nm |
| Fab clone 6a:5 (Fab, V domains shown, Tested as a human Fab (gamma1 Fd + kappa), crude periplasmic preparation, approx. 0.33 ug Fab/ml) VH: EVQLLESGPGLVKPSQTLSLTCAISGDNVSRKSAAWNWIRQSPSRGLEWLGRTYHMSKWYSVYATSLKSRININVDTSRNQFALQLRSVTPEDTAVYYCAREGPEWAVGGTYGMDVWGQGTTVTVSS VL: AELTQSPDTLSLSPGERATLSCRASQSVNNNYLAWYQQKPGQAPRLLIYGASSRATGIPDRFSGSGSETDFTLTISRLEPEDFAVYYCQQYDSSRTFGQGTKVEIK | 0.09 OD405 nm | 0.15 OD405 nm |
| Fab clone 2b-9 (Fab, V domains shown, Human Fab (gamma1 Fd + kappa), crude periplasmic preparation, approx. 0.19 ug Fab/ml) VH: LLESGPGLVQPSQTLSLTYAISGDSVSSNSAAWTWIRQSPSRGLEWLGMTYYRSQWYHEYAVSLKSRITINADTSNNQFSLQVNSVTPEDTALYYCARARFVGDTTGYYTFDYWGQGTLVTVSS VL: AELTQSPGTLSLSPGERGTLSCRASQSVSSSYLAWYQQKAGQAPRLLIYGASSRATGIPDRFSGSGSGTDFTLTISRLEPEDFAVYYCQRYGTSPKTFGQGTKVEFK |  | 0.33 OD405 nm |
| Fab clone 1:9 (Fab, V domains shown, Human Fab (gamma1 Fd + kappa), crude periplasmic preparation, approx. 0.05 ug Fab/ml) VH: EVQLLESGPGLVKPSETLSLTCTVSGNSISSGYYWVWFRQSPGKGLEWIASIYHSGSTYYNPSLRSRVSISVDTSKKQFSLKLSSVTAADTAVYYCARDSAKTTRYFVHWGQGTLVTVSS VL: AELTQSPGTLSLSPGERATLSCRASQSVSSSYLAWYQQKAGQAPRLLIYGASRRATGIPVRFSGSGSGAEFTLTISSLQSEDSAVYYCQHYHNWPAMYTFGQGTKLEIK | 0.67 OD405 nm | 0.96 OD405 nm |
| Fab clone 98 (Fab, V domains shown, Human Fab (gamma1 Fd + kappa light chain), tested as a crude periplasmic preparation, approx. 5 ug Fab/ml) VH: EVQLLEQSGAEVKKPGESLRISCRGSGYSFPNYWVSWVRQMPGKGLEWMGKIDPSDSETNYSPSFQGHVTISADKSLSIAYLQWNSLKASDTAMYHCARHKRGAPTYKDILTGYYVDGMDVWGQGTTDTVSS VL: AELTQSPSSLSASVGDRVTITCQASPDISNYLNWYQQKPGKAPNLLIYGASSLQRGVPSRLSGSGSGTDFTLTIDSLQPEDFATYYCQQSYGSPHTFGQGTKVEIK |  | 0.2 OD405 nm |
| Fab clone 2b-1 (Fab, V domains shown, Human Fab (gamma1 Fd + kappa), crude periplasmic preparation, approx. 0.94 ug Fab/ml) VH: EVQLLESGPRLVKPSQTLSLTCTVSGDSLNNASHYWAWIRQPAGKGLEWIGRIHRGGSTNYNPSLQSRVTISMDESKNQFSLRLNSVTAADTAVYYCARDPPKAWGPGILVTVSS VL: AELTQSPSSLSASVGDRVTIACRASQSISNHLNWYQQKPGKAPKVLIYAASSLQSGVPSRFSGSGSGTDFTLTISSLQPEDFAIYYCQQSYSNADFGPGTKVDIK | 0.12 OD405 nm | 0.35 OD405 nm |
| Fab clone 2a-33 (Fab, V domains shown, Human Fab (gamma1 Fd + kappa), crude periplasmic preparation, approx. >1 ug Fab/ml) VH: VQLLEQSGGGLVQPGRSLRLSCAASGFTFDDYAMHWVRQTPGKGLEWVSGIGWNSGTIEYADSVKGRFTISRDNAKNSLYLQMNSLRPEDTALYYCAKDLHSFGYCSGRSCYFHPFDYWGQGTLVTVSS VL: not shown | 0.14 OD405 nm | 0.65 OD405 nm |
| Fab clone 1:10 (Fab, V domains shown, Human Fab (gamma1 Fd + kappa), crude periplasmic preparation, approx. 0.01 ug Fab/ml) VH: EVQLLESGAEVKKPGESLRISCRGSGYSFPNYWVSWVRQMPGKGLEWMGKIDPSDSETNYSPSFQGHVTISADKSLSIAYLQWNSLKASDTAMYYCARHKRGAPTYKDILTGYYVDGMDVWGQGTTVTVSS VL: AELTQSPDSLAMSLGERASINCKSSRSLLYSSNNKNYLAWYQQKSGHPPKLLIYWASTRESGVPDRFNGSGSGTDFTLTISSLQAEDVAVYFCQQYYSSPLTFGGGTKVEIK | 0.12 OD405 nm | 0.2 OD405 nm |
| Fab clone 2a-25 (Fab, V domains shown, Human Fab (gamma1 Fd + kappa), crude periplasmic preparation, approx. 0.11 ug Fab/ml) VH: VQLLEQSGAEVKKPGASVKVSCKASGYMFTCYYMHWVRQAPGQGLEWMGMVNPTGGSSSYAQKFQGRVTMTKGHVTSTVYMELSSLRSEDTAVYYCATGMVRGDEWGQGTLVTVSS VL: AELTQSPSFSSASVGDRVTITCRASHGISSHLAWFQHKPGKAPNLLIYAASTLQSGVPSRFSGSQSGTEFTLTITSLHPEDFATYYCQQLYTWPMGFGQGTRLEIT |  | 1.46 OD405 nm |
